Values joined by “and” are separate entries in the source; they are usually repeats but may differ in a detail not shown here. Identical values can stand only once.

For test [1], the target named is intercellular adhesion molecule-1 (ICAM-1) of epithelial cells (human (endogenous in primary tonsil, cervical and foreskin keratinocytes)) (UniProt P05362).
Test [2] has the same target. The source holds these as a separate data set.

Chain of UniProt P05362 (P05362 28-532): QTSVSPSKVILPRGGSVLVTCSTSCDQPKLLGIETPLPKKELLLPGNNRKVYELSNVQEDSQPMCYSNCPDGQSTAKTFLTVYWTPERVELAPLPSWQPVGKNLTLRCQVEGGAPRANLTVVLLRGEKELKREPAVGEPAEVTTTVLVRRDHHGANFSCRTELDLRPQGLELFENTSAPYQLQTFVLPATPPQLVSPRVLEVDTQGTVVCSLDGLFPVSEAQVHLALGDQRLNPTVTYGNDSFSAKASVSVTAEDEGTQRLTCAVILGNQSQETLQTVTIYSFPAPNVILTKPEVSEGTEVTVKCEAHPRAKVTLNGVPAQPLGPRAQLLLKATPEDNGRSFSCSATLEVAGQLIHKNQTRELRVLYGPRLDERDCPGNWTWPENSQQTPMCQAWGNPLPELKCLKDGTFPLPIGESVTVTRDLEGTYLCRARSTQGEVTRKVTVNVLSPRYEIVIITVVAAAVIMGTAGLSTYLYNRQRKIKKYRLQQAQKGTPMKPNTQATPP

For the substance “lymphocyte receptor function-associated antigen-1 (LFA-1) (from UniProt P20701 26-1170; P05107 23-769) (complex)”, in test [1], the reduction of HIV-1 SF33 spread from AP and BL surfaces of polarized tonsil epithelial cells to activated PBMC, in the presence of antibodies against ICAM-1 and LFA-1 (ELISA p24 of PBMC after 7 days) lay in the range of 65 to 70%. In test [2], the reduction of HIV-1 SF33 spread from AP and BL membranes of polarized cervical and foreskin epithelial cells to activated PBMC, in the presence of antibodies to LFA-1 and ICAM-1 (ELISA p24) was 40% and 50%; the reduction of spread of R5-tropic HIV-1 SF170 from polarized cervical and foreskin epithelial cells to CD4+ T lymphocytes, in the presence of antibodies to LFA-1 and ICAM-1 (ELISA p24) stood at 70%; the reduction of spread of X4-tropic HIV-1 92UG029 from polarized cervical and foreskin epithelial cells to CD4+ T lymphocytes, in the presence of antibodies to LFA-1 and ICAM-1 (ELISA p24) was 50%.
